This note sets out measurements from article PMC7950132 (Molecular & Cellular Proteomics : MCP, 2021).

The test has as its target T1, CUL5(NEDD8) (human, UniProt Q93034 1-780; Q15843 1-76, NEDD8 attached at K724).
T1 construct: cullin 5, human; NEDD8, human, conjugated to CUL5; Always present together with RBX2 and ELOB/C in the experiments; written alone for the pairs inside the complexes; The His tag on CUL5 served the Ni-NTA step before TEV cleavage; also called neddylated CUL5; source: E. coli BL21, coexpressed with RBX2 and ELOB/C, neddylated in mixed lysates, purified (Ni-NTA, SEC); not shown: His6, N-terminal, …
The experiment in a line: SEC; ARIH2 mixed with an equimolar amount of ELOB/C-CUL5(NEDD8)-RBX2 or ELOB/C-CUL5-RBX2, separated by size exclusion; fractions on SDS-PAGE. As to conditions: both partners purified. (In general: Size exclusion chromatography separates by hydrodynamic size, large species first.)

T1 sequence (Q93034 whole entry, chain 1 of 2): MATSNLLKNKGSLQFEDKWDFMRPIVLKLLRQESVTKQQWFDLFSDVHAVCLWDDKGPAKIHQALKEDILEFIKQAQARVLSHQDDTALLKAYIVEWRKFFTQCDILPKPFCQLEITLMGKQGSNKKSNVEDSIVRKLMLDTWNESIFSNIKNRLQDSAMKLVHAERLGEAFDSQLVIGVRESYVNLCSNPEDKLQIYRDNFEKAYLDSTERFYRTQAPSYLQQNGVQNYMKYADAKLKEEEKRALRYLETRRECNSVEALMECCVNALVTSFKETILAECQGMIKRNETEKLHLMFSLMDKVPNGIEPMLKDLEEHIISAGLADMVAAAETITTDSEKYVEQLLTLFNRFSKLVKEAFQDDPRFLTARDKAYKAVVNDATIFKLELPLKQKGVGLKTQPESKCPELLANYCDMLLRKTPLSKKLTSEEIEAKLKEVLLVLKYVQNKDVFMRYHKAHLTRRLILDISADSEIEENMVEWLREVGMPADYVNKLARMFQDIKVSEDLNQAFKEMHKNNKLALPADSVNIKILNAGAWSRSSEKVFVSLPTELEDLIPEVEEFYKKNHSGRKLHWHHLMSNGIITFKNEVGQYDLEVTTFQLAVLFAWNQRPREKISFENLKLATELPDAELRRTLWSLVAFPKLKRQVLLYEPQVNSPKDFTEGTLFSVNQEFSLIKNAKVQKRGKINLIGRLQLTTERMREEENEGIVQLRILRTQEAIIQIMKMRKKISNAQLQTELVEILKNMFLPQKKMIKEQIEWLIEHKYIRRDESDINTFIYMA
T1 sequence (Q15843 1-76, chain 2 of 2): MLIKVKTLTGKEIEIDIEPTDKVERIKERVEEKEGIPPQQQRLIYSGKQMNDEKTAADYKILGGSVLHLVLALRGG

B1: Ariadne RBR E3 ubiquitin protein ligase 2 (ARIH2) (enzyme, human, UniProt O95376 1-493, looked up)
chain: MSVDMNSQGSDSNEEDYDPNCEEEEEEEEDDPGDIEDYYVGVASDVEQQGADAFDPEEYQFTCLTYKESEGALNEHMTSLASVLKVSHSVAKLILVNFHWQVSEILDRYKSNSAQLLVEARVQPNPSKHVPTSHPPHHCAVCMQFVRKENLLSLACQHQFCRSCWEQHCSVLVKDGVGVGVSCMAQDCPLRTPEDFVFPLLPNEELREKYRRYLFRDYVESHYQLQLCPGADCPMVIRVQEPRARRVQCNRCNEVFCFKCRQMYHAPTDCATIRKWLTKCADDSETANYISAHTKDCPKCNICIEKNGGCNHMQCSKCKHDFCWMCLGDWKTHGSEYYECSRYKENPDIVNQSQQAQAREALKKYLFYFERWENHNKSLQLEAQTYQRIHEKIQERVMNNLGTWIDWQYLQNAAKLLAKCRYTLQYTYPYAYYMESGPRKKLFEYQQAQLEAEIENLSWKVERADSYDRGDLENQMHIAEQRRRTLLKDFHDT
notes: ARIH2, human, codon-optimised synthetic gene; also called ARIH2 RBRL; source: E. coli BL21, purified (Ni-NTA, SEC); not shown: His6, N-terminal, cleaved; MBP, N-terminal, cleaved
As to B1, the binding result is recorded as “binds”.
